Experimental data from patent US20030224397A1 (Genentech, published 2003).
Changes are numbered by the printed parent chain. Numbers in names are those of the source. Like-named read-outs stand apart in the source and are kept apart here. Blank lines part the entries; values can stand above or below the binder they belong to.

How the values were obtained:
[1] = target: T1, short isoform of VEGF (8-109) (UniProt P15692 214-315); assay: calculated from k-1 and k1, 0 M NaCl data
T1 construct: range 8-109; Immobilized by amine coupling for SPR; in solution for the fluorescence assay; also called vascular endothelial growth factor
T1 sequence (looked up): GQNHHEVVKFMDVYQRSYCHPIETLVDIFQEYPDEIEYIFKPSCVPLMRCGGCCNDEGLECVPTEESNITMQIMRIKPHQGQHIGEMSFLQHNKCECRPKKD

[2] = target: T1, short isoform of VEGF (8-109); assay: fluorescence-based association assay at varied salt concentration
Method: (§1) In the experiments described here, the fluorescence emission intensity (λexcitation=295 nm; λₑₘᵢₛₛᵢₒₙ=340 nm, 16 nm bandpass) was measured using an 8000-series SLM-Aminco spectrophotometer (THERMOSPECTRONIC®) as VEGF was added to a stirred cuvette containing approximately 10 nM Fab in 25 mM Tris, pH 7.2, held at 37° C.

[3] = target: T1, short isoform of VEGF (8-109); assay: SPR (BIAcore), VEGF immobilized, 25 mM Tris, 150 mM NaCl, 25 C
[4] = target: T1, short isoform of VEGF (8-109); assay: SPR (BIAcore), VEGF immobilized, 25 mM Tris pH 7.2, 0 M NaCl, 37 C
Method: (§2) Dissociation rates were measured by surface plasmon resonance on a BIACORE-2000® instrument (BIAcore, Inc.) as described previously (Muller et al. Structure 6(9): 1153-67 (1998)). VEGF was immobilized by amine coupling to a B1 chip at approximately 10 resonance-response units. Fab binding was measured at 1 μM, 500 nM, 250 nM, 125 nM, 62.5 nM, and 31.3 nM. Dissociation was calculated assuming a one-to-one binding model. All experiments were performed at 37° C. in phosphate buffered saline solution, pH 7.2, containing 0.05% Tween-20, 0.01% NaN3 and at a flow rate of 20 μL min⁻¹.
(§3) Residues are numbered according the Kabat system (Kabat et al. Sequences of Proteins of Immunological Interest, 5th Edition., National Institute of Health, Bethesda, Md. (1991)). k₁ determined by the fluorescence-based assay (±standard deviation of three experiments). k₋₁ determined by surface plasmon resonance (±standard deviation of 12 experiments). k₁ and k₋₁ (0 M NaCl) experiments were performed in 25 mM Tris, pH 7.2, at 37° C. k₋₁ (0.15 M NaCl) experiments performed in 25 mM Tris, 150 mM NaCl, at 25° C.

[5] = target: T1, short isoform of VEGF (8-109); assay: fluorescence-based association assay in solution, 25 mM Tris pH 7.2, 37 C
Method: as §1

[6] = target: T1, short isoform of VEGF (8-109); assay: as above; remark: listed apart in the source
Method: as §1, §3

[7] = target: T1, short isoform of VEGF (8-109); assay: as above; remark: listed apart in the source
Method: as §1
as §3, with “three experiments, wild-type only).” for “three experiments).”

[8] = target: T1, short isoform of VEGF (8-109); assay: calculated from k-1 and k1, 0 M NaCl data; remark: listed apart in the source
[9] = target: T1, short isoform of VEGF (8-109); assay: SPR (BIAcore), VEGF immobilized, 25 mM Tris, 150 mM NaCl, 25 C; remark: listed apart in the source
[10] = target: T1, short isoform of VEGF (8-109); assay: SPR (BIAcore), VEGF immobilized, 25 mM Tris pH 7.2, 0 M NaCl, 37 C; remark: listed apart in the source
Method: as §2
as §3, with “three experiments, wild-type only).” for “three experiments).”

B1: 34-TKKT (VH-(T28D, S100aR)+VL-(S26T, Q27K, D28K, S30T)) (Fab, V domains shown)
VH: EVQLVESGGGLVQPGGSLRLSCAASGYDFTNYGMNWVRQAPGKGLEWVGWINTYTGEPTYAADFKRRFTFSLDTSKSTAYLQMNSLRAEDTAVYYCAKYPHYYGRSHWYFDVWGQGTLVTVSS
VL: DIQLTQSPSSLSASVGDRVTITCSATKKITNYLNWYQQKPGKAPKVLIYFTSSLHSGVPSRFSGSGSGTDFTLTISSLQPEDFATYYCQQYSTVPWTFGQGTKVEIKR
notes: Fab of Y0101 with both altered chains
Kd [1]: 0.08 nM | fold difference in association rate against Y0101 in 150 mM NaCl [2]: < 2 fold | koff [3]: 2e-05 s⁻¹ | koff [4]: 0.00026 s⁻¹ | fold higher association rate than Y0101 [5]: 6 fold | kon [6]: 3.3e+06 M⁻¹ s⁻¹

B4: Fab Y0101 variant, heavy chain T28K (Fab, name in Kabat numbering, V domains shown)
VH: B1 VH with D28K, R105S
VL: B1 VL with T26S, K27Q, K28D, T30S
notes: Fab of Y0101 with one heavy chain substitution
kon [7]: 360000 M⁻¹ s⁻¹

B5: Fab Y0101 variant, heavy chain Y99K (Fab, name in Kabat numbering, V domains shown)
VH: B1 VH with D28T, Y103K, R105S
VL: B1 VL with T26S, K27Q, K28D, T30S
notes: as for B4
Kd [8]: 0.4 nM | koff [9]: 0.00014 s⁻¹ | koff [10]: 0.00015 s⁻¹ | kon [7]: 380000 M⁻¹ s⁻¹

B6: Fab Y0101 variant, heavy chain E56K (Fab, name in Kabat numbering, V domains shown)
VH: B1 VH with D28T, E57K, R105S
VL: B1 VL with T26S, K27Q, K28D, T30S
notes: as for B4
Kd [8]: 0.9 nM | koff [10]: 0.00044 s⁻¹ | kon [7]: 480000 M⁻¹ s⁻¹

B9: Fab Y0101 variant, heavy chain T28D, S100aR (Fab, V domains shown)
VH: B1 VH
VL: B1 VL with T26S, K27Q, K28D, T30S
notes: Fab; also called altered heavy chain T28D-S100aR
koff [3]: 0.00011 s⁻¹ | kon [6]: 1.4e+06 M⁻¹ s⁻¹

B11: Fab Y0101 variant, heavy chain S100aR (Fab, name in Kabat numbering, V domains shown)
VH: B1 VH with D28T
VL: B1 VL with T26S, K27Q, K28D, T30S
notes: as for B4
Kd [8]: 0.3 nM | koff [9]: 7e-05 s⁻¹ | koff [10]: 0.00024 s⁻¹ | kon [7]: 870000 M⁻¹ s⁻¹

Continued, values first:

kon [7]: 710000 M⁻¹ s⁻¹
B2: Fab Y0101 variant, light chain Y32R (Fab, V domains shown)
VH: B1 VH with D28T, R105S
VL: B1 VL with T26S, K27Q, K28D, T30S, Y32R
notes: Fab of Y0101 with one light chain substitution

kon [7]: 440000 M⁻¹ s⁻¹
B3: Fab Y0101 variant, light chain L54K (Fab, V domains shown)
VH: B1 VH with D28T, R105S
VL: B1 VL with T26S, K27Q, K28D, T30S, L54K
notes: as for B2

kon [6]: 1.3e+06 M⁻¹ s⁻¹
B7: Fab Y0101 variant, light chain S26K, D28K, S30K (Fab, V domains shown)
VH: B1 VH with D28T, R105S
VL: B1 VL with T26K, K27Q, T30K
notes: Fab of Y0101 with several light chain substitutions

Kd [8]: 0.2 nM | koff [9]: 0.00016 s⁻¹ | koff [10]: 0.00014 s⁻¹ | kon [7]: 600000 M⁻¹ s⁻¹
B8: Fab Y0101 variant, heavy chain Y99R (Fab, name in Kabat numbering, V domains shown)
VH: B1 VH with D28T, Y103R, R105S
VL: B1 VL with T26S, K27Q, K28D, T30S
notes: as for B4

kon [6]: 1.3e+06 M⁻¹ s⁻¹
B10: Fab Y0101 variant, light chain S52K, S53K, L54T (Fab, V domains shown)
VH: B1 VH with D28T, R105S
VL: B1 VL with T26S, K27Q, K28D, T30S, S52K, S53K, L54T
notes: as for B7

kon [6]: 610000 M⁻¹ s⁻¹
B12: Fab Y0101 variant, light chain S26K, Q27K, D28N, S30T (Fab, V domains shown)
VH: B1 VH with D28T, R105S
VL: B1 VL with T26K, K28N
notes: as for B7
